Measurements taken from doi:10.1101/2020.04.21.053124.

Target: MVI Spring bZip (1-914) (UniProt Q9UM54)
Experiment: SEC

“MVI Spring bZip (1-914) (from UniProt Q9UM54 1-914)” showed a stoichiometry N of 2.
